# Data reported in PMC3879356.
# Target: cytosolic domain of CAML (CAMLcyt), GST-tagged
# Assay: SPR; WRBcc or CAMLcyt immobilised on a HC1000m sensorchip (Reichert SR7000DC); analyte TRC40wt or TRC40wt/RAMP4 in PBS, 15°C, 40 µl/min, injected 270 s, dissociation 12 min; average of three independent measurements
# Chain of TRC40/RAMP4 complex (MBP-TRC40/HZZ-RAMP4op protein complex) (O43681 whole entry): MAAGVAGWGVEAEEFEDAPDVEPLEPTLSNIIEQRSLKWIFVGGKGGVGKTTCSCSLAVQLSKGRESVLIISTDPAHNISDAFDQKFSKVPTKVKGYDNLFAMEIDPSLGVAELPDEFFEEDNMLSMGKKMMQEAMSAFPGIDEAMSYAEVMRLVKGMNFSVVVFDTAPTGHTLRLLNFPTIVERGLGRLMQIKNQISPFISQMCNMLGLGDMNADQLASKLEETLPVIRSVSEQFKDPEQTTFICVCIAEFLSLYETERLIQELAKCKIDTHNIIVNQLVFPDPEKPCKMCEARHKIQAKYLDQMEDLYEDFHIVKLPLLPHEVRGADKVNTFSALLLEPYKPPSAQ
# Chain of TRC40/RAMP4 complex (MBP-TRC40/HZZ-RAMP4op protein complex) (Q9Y6X1 whole entry): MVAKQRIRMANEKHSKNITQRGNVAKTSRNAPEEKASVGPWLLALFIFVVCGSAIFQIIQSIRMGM
substance,measurement,value
TRC40/RAMP4 complex (MBP-TRC40/HZZ-RAMP4op protein complex) (from UniProt O43681 1-348; Q9Y6X1 1-66),Kd,0.034 µM
